Results as given in patent US20190023807A1 (CRESCENDO BIOLOGICS, published 2019).

Columns and labels:
[1] = molecular target: human PSMA (prostate specific membrane antigen), full-length, expressed on cells (human, UniProt Q04609 1-750); test: cell-based or functional assay
[2] = molecular target: cynomolgus PSMA, full-length, expressed on CHO cells (cynomolgus, UniProt A0A2K5VNZ0 1-750); test: cell-based or functional assay
[3] = molecular target: T1, recombinant human PSMA (R&D, cat. no. 4234-ZN) (human, UniProt Q04609 44-750); test: periprep/phage screen, rhPSMA
T1 construct: also called rhPSMA; Recombinant PMSA
T1 sequence (Q04609 44-750 limits assumed): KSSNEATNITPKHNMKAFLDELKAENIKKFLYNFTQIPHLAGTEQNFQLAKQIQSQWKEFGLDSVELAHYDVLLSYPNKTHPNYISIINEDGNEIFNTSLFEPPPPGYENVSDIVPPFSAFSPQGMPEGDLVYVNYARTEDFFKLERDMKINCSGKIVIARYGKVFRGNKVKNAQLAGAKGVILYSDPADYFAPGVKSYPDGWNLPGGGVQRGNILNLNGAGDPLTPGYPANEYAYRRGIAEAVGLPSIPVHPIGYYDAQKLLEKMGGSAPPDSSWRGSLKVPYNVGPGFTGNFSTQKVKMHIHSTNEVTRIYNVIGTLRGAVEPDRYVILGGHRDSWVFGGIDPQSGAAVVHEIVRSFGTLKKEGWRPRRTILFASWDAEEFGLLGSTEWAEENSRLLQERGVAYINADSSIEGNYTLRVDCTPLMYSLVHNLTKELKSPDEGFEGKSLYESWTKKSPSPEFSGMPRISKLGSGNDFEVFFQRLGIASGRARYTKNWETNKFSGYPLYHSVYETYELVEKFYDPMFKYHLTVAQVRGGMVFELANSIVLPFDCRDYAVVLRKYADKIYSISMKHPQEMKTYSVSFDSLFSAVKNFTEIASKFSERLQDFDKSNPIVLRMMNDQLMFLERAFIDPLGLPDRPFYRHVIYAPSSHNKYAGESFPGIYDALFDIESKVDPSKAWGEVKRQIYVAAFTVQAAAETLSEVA

human PSMA (prostate specific membrane antigen), full-length, expressed on cells, sequence (Q04609 whole entry): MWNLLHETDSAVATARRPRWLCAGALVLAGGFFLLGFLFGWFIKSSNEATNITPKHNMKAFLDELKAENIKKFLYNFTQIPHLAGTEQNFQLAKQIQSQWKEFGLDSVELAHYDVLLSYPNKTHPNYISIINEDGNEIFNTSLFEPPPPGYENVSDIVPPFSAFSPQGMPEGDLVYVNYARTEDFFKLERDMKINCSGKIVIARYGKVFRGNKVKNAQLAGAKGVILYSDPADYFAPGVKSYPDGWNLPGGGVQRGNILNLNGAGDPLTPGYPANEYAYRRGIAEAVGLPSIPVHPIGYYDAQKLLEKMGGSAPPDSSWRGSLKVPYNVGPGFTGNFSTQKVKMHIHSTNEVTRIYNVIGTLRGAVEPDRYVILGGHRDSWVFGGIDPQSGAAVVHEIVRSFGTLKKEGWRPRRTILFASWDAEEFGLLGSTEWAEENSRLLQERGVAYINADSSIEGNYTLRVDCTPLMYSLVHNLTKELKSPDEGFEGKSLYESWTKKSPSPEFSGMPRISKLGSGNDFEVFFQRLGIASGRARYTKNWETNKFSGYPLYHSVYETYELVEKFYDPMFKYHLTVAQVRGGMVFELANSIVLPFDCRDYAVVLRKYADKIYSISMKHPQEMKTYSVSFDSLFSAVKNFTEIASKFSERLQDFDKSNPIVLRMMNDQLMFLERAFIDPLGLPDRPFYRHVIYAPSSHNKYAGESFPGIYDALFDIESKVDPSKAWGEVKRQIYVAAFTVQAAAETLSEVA

| Binder | His-ZAP cell killing, human PSMA Average EC50 [1] | His-ZAP cell killing, cyno PSMA Average EC50 [2] | binding result [3] |
| --- | --- | --- | --- |
| 1.11-6GS-2.1 (bispecific antibody, not shown: small tags and cut ends) EVQLLESGGGLVQPGGSLRLSCAASGFSFSSYALSWVRQAPGKGLEWVSSIGENNDTTDYADNVKGRFTISRDNSKNTLYLQMNSLRVEDTAVYYCVKDGVHWGQGTLVTVSSGGGGSGGGGSGGGGSGGGGSGGGGSGGGGSEVQLVESGGGVVQPGRSLRLSCAASGFSFSGYGMHWVRQAPGKGLEWVAYISYDGSNKYYADSVKGRFTISRDNSKNTLYLQMNSLRAEDTAVYYCAKDPAWGLRLGESSSYDFDIWGQGTMVTVSS | 0.017 nM | 0.012 nM |  |
| 1.18-6GS-2.1 (bispecific antibody, not shown: small tags and cut ends) EVQLLESGGGLVQPGGSLRLSCAASGFSFSSYALSWVRQAPGKGLEWVSSIGENNATTDYAASVKGRFTISRDNSKNTLYLQMNSLRVEDTAVYYCVKDGVHWGQGTLVTVSSGGGGSGGGGSGGGGSGGGGSGGGGSGGGGSEVQLVESGGGVVQPGRSLRLSCAASGFSFSGYGMHWVRQAPGKGLEWVAYISYDGSNKYYADSVKGRFTISRDNSKNTLYLQMNSLRAEDTAVYYCAKDPAWGLRLGESSSYDFDIWGQGTMVTVSS | 0.0057 nM | 0.0058 nM |  |
| 1.18-6GS-2.15 (bispecific antibody, not shown: small tags and cut ends) EVQLLESGGGLVQPGGSLRLSCAASGFSFSSYALSWVRQAPGKGLEWVSSIGENNATTDYAASVKGRFTISRDNSKNTLYLQMNSLRVEDTAVYYCVKDGVHWGQGTLVTVSSGGGGSGGGGSGGGGSGGGGSGGGGSGGGGSEVQLVESGGGVVQPGRSLRLSCAASGFSFSGYGLHWVRQAPGKGLEWVAYISYDKSNKYYADKVKGRFTISRDNSKNTLYLQMNSLRAEDTAVYYCAKDPAWGLRLGESSSYDFDIWGQGTMVTVSS |  | 0.01 nM |  |
| 1.16-6GS-2.17 (bispecific antibody, not shown: small tags and cut ends) EVQLLESGGGLVQPGGSLRLSCAASGFSFSSYALSWVRQAPGKGLEWVSSIGENNHTTDYADTVKGRFTISRDNSKNTLYLQMNSLRVEDTAVYYCVKDGVHWGQGTLVTVSSGGGGSGGGGSGGGGSGGGGSGGGGSGGGGSEVQLVESGGGVVQPGRSLRLSCAASGFSFSGYGMHWVRQAPGKGLEWVAYISYDASNKYYADNVKGRFTISRDNSKNTLYLQMNSLRAEDTAVYYCAKDPAWGLRLGESSSYDFDIWGQGTMVTVSS | 0.015 nM | 0.011 nM |  |
| 1.16-6GS-2.22 (bispecific antibody, not shown: small tags and cut ends) EVQLLESGGGLVQPGGSLRLSCAASGFSFSSYALSWVRQAPGKGLEWVSSIGENNHTTDYADTVKGRFTISRDNSKNTLYLQMNSLRVEDTAVYYCVKDGVHWGQGTLVTVSSGGGGSGGGGSGGGGSGGGGSGGGGSGGGGSEVQLVESGGGVVQPGRSLRLSCAASGFSFSGYGTHWVRQAPGKGLEWVAYISYDGSNKYYAAPVKGRFTISRDNSKNTLYLQMNSLRAEDTAVYYCAKDAAWGLRLGESSSYDFDIWGQGTMVTVSS | 0.02 nM | 0.011 nM |  |
| 1.11-6GS-2.17 (bispecific antibody, not shown: small tags and cut ends) EVQLLESGGGLVQPGGSLRLSCAASGFSFSSYALSWVRQAPGKGLEWVSSIGENNDTTDYADNVKGRFTISRDNSKNTLYLQMNSLRVEDTAVYYCVKDGVHWGQGTLVTVSSGGGGSGGGGSGGGGSGGGGSGGGGSGGGGSEVQLVESGGGVVQPGRSLRLSCAASGFSFSGYGMHWVRQAPGKGLEWVAYISYDASNKYYADNVKGRFTISRDNSKNTLYLQMNSLRAEDTAVYYCAKDPAWGLRLGESSSYDFDIWGQGTMVTVSS | 0.0079 nM | 0.0081 nM |  |
| 1.16-6GS-2.1 (bispecific antibody, not shown: small tags and cut ends) EVQLLESGGGLVQPGGSLRLSCAASGFSFSSYALSWVRQAPGKGLEWVSSIGENNHTTDYADTVKGRFTISRDNSKNTLYLQMNSLRVEDTAVYYCVKDGVHWGQGTLVTVSSGGGGSGGGGSGGGGSGGGGSGGGGSGGGGSEVQLVESGGGVVQPGRSLRLSCAASGFSFSGYGMHWVRQAPGKGLEWVAYISYDGSNKYYADSVKGRFTISRDNSKNTLYLQMNSLRAEDTAVYYCAKDPAWGLRLGESSSYDFDIWGQGTMVTVSS | 0.014 nM | 0.013 nM |  |
| 1.18-6GS-2.22 (bispecific antibody, not shown: small tags and cut ends) EVQLLESGGGLVQPGGSLRLSCAASGFSFSSYALSWVRQAPGKGLEWVSSIGENNATTDYAASVKGRFTISRDNSKNTLYLQMNSLRVEDTAVYYCVKDGVHWGQGTLVTVSSGGGGSGGGGSGGGGSGGGGSGGGGSGGGGSEVQLVESGGGVVQPGRSLRLSCAASGFSFSGYGTHWVRQAPGKGLEWVAYISYDGSNKYYAAPVKGRFTISRDNSKNTLYLQMNSLRAEDTAVYYCAKDAAWGLRLGESSSYDFDIWGQGTMVTVSS | 0.015 nM | 0.014 nM |  |
| 1.16-6GS-2.15 (bispecific antibody, not shown: small tags and cut ends) EVQLLESGGGLVQPGGSLRLSCAASGFSFSSYALSWVRQAPGKGLEWVSSIGENNHTTDYADTVKGRFTISRDNSKNTLYLQMNSLRVEDTAVYYCVKDGVHWGQGTLVTVSSGGGGSGGGGSGGGGSGGGGSGGGGSGGGGSEVQLVESGGGVVQPGRSLRLSCAASGFSFSGYGLHWVRQAPGKGLEWVAYISYDKSNKYYADKVKGRFTISRDNSKNTLYLQMNSLRAEDTAVYYCAKDPAWGLRLGESSSYDFDIWGQGTMVTVSS |  | 0.011 nM |  |
| 1.11-6GS-2.15 (bispecific antibody, not shown: small tags and cut ends) EVQLLESGGGLVQPGGSLRLSCAASGFSFSSYALSWVRQAPGKGLEWVSSIGENNDTTDYADNVKGRFTISRDNSKNTLYLQMNSLRVEDTAVYYCVKDGVHWGQGTLVTVSSGGGGSGGGGSGGGGSGGGGSGGGGSGGGGSEVQLVESGGGVVQPGRSLRLSCAASGFSFSGYGLHWVRQAPGKGLEWVAYISYDKSNKYYADKVKGRFTISRDNSKNTLYLQMNSLRAEDTAVYYCAKDPAWGLRLGESSSYDFDIWGQGTMVTVSS |  | 0.009 nM |  |
| 1.1-6GS-2.1 (bispecific antibody, not shown: small tags and cut ends) EVQLLESGGGLVQPGGSLRLSCAASGFSFSSYAMSWVRQAPGKGLEWVSSIGENDGTTDYADSVKGRFTISRDNSKSMLYLQMNSLRVEDTAVYYCVKDGVHWGQGTLVTVSSGGGGSGGGGSGGGGSGGGGSGGGGSGGGGSEVQLVESGGGVVQPGRSLRLSCAASGFSFSGYGMHWVRQAPGKGLEWVAYISYDGSNKYYADSVKGRFTISRDNSKNTLYLQMNSLRAEDTAVYYCAKDPAWGLRLGESSSYDFDIWGQGTMVTVSS |  | 0.012 nM |  |
| 1.1-6GS-2.22 (bispecific antibody, not shown: small tags and cut ends) EVQLLESGGGLVQPGGSLRLSCAASGFSFSSYAMSWVRQAPGKGLEWVSSIGENDGTTDYADSVKGRFTISRDNSKSMLYLQMNSLRVEDTAVYYCVKDGVHWGQGTLVTVSSGGGGSGGGGSGGGGSGGGGSGGGGSGGGGSEVQLVESGGGVVQPGRSLRLSCAASGFSFSGYGTHWVRQAPGKGLEWVAYISYDGSNKYYAAPVKGRFTISRDNSKNTLYLQMNSLRAEDTAVYYCAKDAAWGLRLGESSSYDFDIWGQGTMVTVSS |  | 0.0078 nM |  |
| 1.18-6GS-2.17 (bispecific antibody, not shown: small tags and cut ends) EVQLLESGGGLVQPGGSLRLSCAASGFSFSSYALSWVRQAPGKGLEWVSSIGENNATTDYAASVKGRFTISRDNSKNTLYLQMNSLRVEDTAVYYCVKDGVHWGQGTLVTVSSGGGGSGGGGSGGGGSGGGGSGGGGSGGGGSEVQLVESGGGVVQPGRSLRLSCAASGFSFSGYGMHWVRQAPGKGLEWVAYISYDASNKYYADNVKGRFTISRDNSKNTLYLQMNSLRAEDTAVYYCAKDPAWGLRLGESSSYDFDIWGQGTMVTVSS | 0.012 nM | 0.0056 nM |  |
| 1.1-6GS-2.15 (bispecific antibody, not shown: small tags and cut ends) EVQLLESGGGLVQPGGSLRLSCAASGFSFSSYAMSWVRQAPGKGLEWVSSIGENDGTTDYADSVKGRFTISRDNSKSMLYLQMNSLRVEDTAVYYCVKDGVHWGQGTLVTVSSGGGGSGGGGSGGGGSGGGGSGGGGSGGGGSEVQLVESGGGVVQPGRSLRLSCAASGFSFSGYGLHWVRQAPGKGLEWVAYISYDKSNKYYADKVKGRFTISRDNSKNTLYLQMNSLRAEDTAVYYCAKDPAWGLRLGESSSYDFDIWGQGTMVTVSS |  | 0.0086 nM |  |
| 1.11-6GS-2.22 (bispecific antibody, not shown: small tags and cut ends) EVQLLESGGGLVQPGGSLRLSCAASGFSFSSYALSWVRQAPGKGLEWVSSIGENNDTTDYADNVKGRFTISRDNSKNTLYLQMNSLRVEDTAVYYCVKDGVHWGQGTLVTVSSGGGGSGGGGSGGGGSGGGGSGGGGSGGGGSEVQLVESGGGVVQPGRSLRLSCAASGFSFSGYGTHWVRQAPGKGLEWVAYISYDGSNKYYAAPVKGRFTISRDNSKNTLYLQMNSLRAEDTAVYYCAKDAAWGLRLGESSSYDFDIWGQGTMVTVSS | 0.01 nM | 0.0095 nM |  |
| 1.1-6GS-2.17 (bispecific antibody, not shown: small tags and cut ends) EVQLLESGGGLVQPGGSLRLSCAASGFSFSSYAMSWVRQAPGKGLEWVSSIGENDGTTDYADSVKGRFTISRDNSKSMLYLQMNSLRVEDTAVYYCVKDGVHWGQGTLVTVSSGGGGSGGGGSGGGGSGGGGSGGGGSGGGGSEVQLVESGGGVVQPGRSLRLSCAASGFSFSGYGMHWVRQAPGKGLEWVAYISYDASNKYYADNVKGRFTISRDNSKNTLYLQMNSLRAEDTAVYYCAKDPAWGLRLGESSSYDFDIWGQGTMVTVSS |  | 0.011 nM |  |
| single VH domain antibody 8.1 (VHH, human single VH domain (Humabody); not shown: C-terminal His tag) VHH: QVQLQQWGAGLLKPSETLSLTCAVYGGSFSGYYWSWIRQPPGKGLEWIGEINHSGSTNYNPSLKSRVTISVDTSKNQFSLKLSSVTAADTAVYYCARGPIPATAIPDAFDIWGQGTMVTVSS |  |  | no binding |
| single VH domain antibody 9.1 (VHH, human single VH domain (Humabody); not shown: C-terminal His tag) VHH: QVQLQQWGAGLLKPSETLSLTCAVYGGSFSGHYWSWIRQPPGKGLEWIGDINHSGSTNYNPSLKSRVTISVDTSKNQFSLKLSSVTAADTAVYYCVRDYGDSRSLFDYWGQGTLVTVSS |  |  | no binding |
